No end group written: not given here.
Biological target: T1, p53 wt-FL (human, UniProt P04637 1-393)
T1 construct: mature; Full-length protein made by in vitro transcription/translation, used unpurified in the IVT mixture; also called wild-type full length p53; IVT synthesized p53 wt-FL
Assay: ELISA conformation 1: biotinylated peptide on streptavidin plate, IVT p53 wt-FL added, detected with DO-1, Bp53 10.1 or CM1 and HRP secondary; ctrl = no p53 extract

T1 sequence (P04637 whole entry): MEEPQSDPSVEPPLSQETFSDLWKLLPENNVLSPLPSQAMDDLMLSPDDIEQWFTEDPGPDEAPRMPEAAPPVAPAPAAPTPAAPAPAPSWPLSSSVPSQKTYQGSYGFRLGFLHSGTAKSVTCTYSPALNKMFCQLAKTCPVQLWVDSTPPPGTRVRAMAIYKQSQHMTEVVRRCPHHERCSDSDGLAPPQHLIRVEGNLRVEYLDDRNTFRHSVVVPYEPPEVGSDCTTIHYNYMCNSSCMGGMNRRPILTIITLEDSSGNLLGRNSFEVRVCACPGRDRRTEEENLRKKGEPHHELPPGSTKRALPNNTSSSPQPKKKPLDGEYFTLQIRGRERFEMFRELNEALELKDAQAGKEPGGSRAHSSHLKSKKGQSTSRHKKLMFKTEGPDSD

Binder | binding result
SPTTNH (also: biotin at N- or C-terminus in ELISA forms only, also called peptide SPT; Peptide-P1) [Pap-SPT] | no binding
MPHLMAC (also: biotin at N- or C-terminus in ELISA forms, also called peptide MPH) [Pap-MPH] | no binding
